This test addresses T1, glutathione S-transferase (GST)-tagged Kid recombinant protein (human, UniProt Q14807 1-665).
T1 construct: cDNA amplified from a cDNA library extracted from HEK 293T cells, inserted into pGEX-4T-1; Vector pGEX-4T-1; The discussion calls the Kid of the gliding assay (Kid-GFP-His, another construct) full-length; nothing is said of the limits of GST-Kid; also called GST-Kid; source: E. coli BL21 (DE3) pLysS, purified (glutathione-Sepharose 4B)
T1 sequence (looked up): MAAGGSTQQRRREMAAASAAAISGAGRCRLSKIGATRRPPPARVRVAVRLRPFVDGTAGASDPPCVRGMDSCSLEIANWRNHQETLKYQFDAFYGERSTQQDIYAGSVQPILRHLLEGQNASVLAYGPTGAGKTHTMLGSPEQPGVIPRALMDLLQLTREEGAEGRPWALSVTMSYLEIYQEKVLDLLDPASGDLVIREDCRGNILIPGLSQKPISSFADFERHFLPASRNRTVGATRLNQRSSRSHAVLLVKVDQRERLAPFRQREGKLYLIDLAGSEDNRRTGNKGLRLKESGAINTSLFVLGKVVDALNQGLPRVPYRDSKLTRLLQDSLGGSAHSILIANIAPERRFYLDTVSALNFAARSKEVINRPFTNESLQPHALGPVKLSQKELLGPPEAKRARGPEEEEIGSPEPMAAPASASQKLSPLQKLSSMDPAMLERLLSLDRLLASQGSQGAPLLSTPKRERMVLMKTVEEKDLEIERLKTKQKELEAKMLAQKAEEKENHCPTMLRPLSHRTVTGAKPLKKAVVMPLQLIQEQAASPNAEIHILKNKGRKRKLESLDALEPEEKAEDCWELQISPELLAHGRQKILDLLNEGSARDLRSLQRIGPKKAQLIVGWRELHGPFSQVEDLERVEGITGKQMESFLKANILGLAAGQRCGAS
The experiment in a line: pull-down; GST or GST-Kid (2 μg) on glutathione beads with 2 μg purified His-NuSAP; 50 mM Tris-HCl pH 7.0, 150 mM NaCl, 1 mM EGTA, 0.5% Triton X-100; 3 h at 4 °C; NuSAP blotted with anti-NuSAP antibody. The conditions noted are these: both partners purified.

We go through one molecule from paper PMC4742958, “NuSAP governs chromosome oscillation by facilitating the Kid-generated polar ejection force” (Nature Communications, 2016).

B1: His-tagged NuSAP recombinant protein (natural protein, human (cDNA library from HEK 293T cells), UniProt Q9BXS6 1-441, looked up)
chain: MIIPSLEELDSLKYSDLQNLAKSLGLRANLRATKLLKALKGYIKHEARKGNENQDESQTSASSCDETEIQISNQEEAERQPLGHVTKTRRRCKTVRVDPDSQQNHSEIKISNPTEFQNHEKQESQDLRATAKVPSPPDEHQEAENAVSSGNRDSKVPSEGKKSLYTDESSKPGKNKRTAITTPNFKKLHEAHFKEMESIDQYIERKKKHFEEHNSMNELKQQPINKGGVRTPVPPRGRLSVASTPISQRRSQGRSCGPASQSTLGLKGSLKRSAISAAKTGVRFSAATKDNEHKRSLTKTPARKSAHVTVSGGTPKGEAVLGTHKLKTITGNSAAVITPFKLTTEATQTPVSNKKPVFDLKASLSRPLNYEPHKGKLKPWGQSKENNYLNQHVNRINFYKKTYKQPHLQTKEEQRKKREQERKEKKAKVLGMRRGLILAED
notes: NuSAP; cDNA amplified from a cDNA library extracted from HEK 293T cells, inserted into pET28b; Vector pET28b; also called His-NuSAP; source: E. coli BL21 (DE3) pLysS, purified (Ni-NTA agarose)
As for B1, the binding result is listed as “binds”.
